In article PMC8225996 (Frontiers in Cardiovascular Medicine, 2021):

Molecular target: T1, Angiotensin converting enzyme 2 (mouse (endogenous in primary brain …, UniProt Q8R0I0 18-805))
T1 construct: Angiotensin converting enzyme 2 (ACE2), type I membrane glycoprotein; endogenous in mouse brain microvascular endothelial cells; also called ACE2; ACE2 receptor; source: endogenous, mouse primary brain microvascular endothelial cells (C57BL/6 control; db/db diabetic), in lysate
Test: co-IP; ACE2 antibody (2 ug) with 150 ug lysate of control endothelial cells treated with Spike; Catch and Release spin columns, 18 h at 4 C; blots probed for Rab5a
Details: partners not purified

T1 sequence (Q8R0I0 18-805): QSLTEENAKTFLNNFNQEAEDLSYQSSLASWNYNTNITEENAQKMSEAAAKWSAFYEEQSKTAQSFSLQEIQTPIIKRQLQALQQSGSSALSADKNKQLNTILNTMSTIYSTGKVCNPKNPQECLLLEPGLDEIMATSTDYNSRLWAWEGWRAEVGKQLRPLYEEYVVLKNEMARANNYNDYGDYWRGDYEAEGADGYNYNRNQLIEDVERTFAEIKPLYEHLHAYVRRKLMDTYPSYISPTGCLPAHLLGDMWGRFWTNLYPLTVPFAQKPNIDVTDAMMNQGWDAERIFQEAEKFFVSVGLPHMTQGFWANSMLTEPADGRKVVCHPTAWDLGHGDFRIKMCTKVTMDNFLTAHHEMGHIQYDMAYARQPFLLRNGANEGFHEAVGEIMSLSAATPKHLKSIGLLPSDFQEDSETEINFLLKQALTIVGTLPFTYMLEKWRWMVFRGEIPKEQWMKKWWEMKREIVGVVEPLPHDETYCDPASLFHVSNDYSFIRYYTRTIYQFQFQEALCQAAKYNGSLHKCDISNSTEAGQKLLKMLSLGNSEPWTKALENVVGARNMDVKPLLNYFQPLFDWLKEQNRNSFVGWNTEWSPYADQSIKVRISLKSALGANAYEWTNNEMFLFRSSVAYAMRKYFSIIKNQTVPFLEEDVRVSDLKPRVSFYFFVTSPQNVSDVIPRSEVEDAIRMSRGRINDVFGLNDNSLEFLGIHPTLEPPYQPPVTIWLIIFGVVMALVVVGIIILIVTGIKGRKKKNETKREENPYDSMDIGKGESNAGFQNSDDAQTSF

B1: Rab5a (natural protein, UniProt Q9CQD1 1-215, looked up)
chain: MANRGATRPNGPNTGNKICQFKLVLLGESAVGKSSLVLRFVKGQFHEFQESTIGAAFLTQTVCLDDTTVKFEIWDTAGQERYHSLAPMYYRGAQAAIVVYDITNEESFARAKNWVKELQRQASPNIVIALSGNKADLANKRAVDFQEAQSYADDNSLLFMETSAKTSMNVNEIFMAIAKKLPKNEPQNPGANSARGRGVDLTEPAQPARSQCCSN
notes: Rab5a, Rab GTPase of the endolysosomal trafficking pathway; endogenous in mouse brain microvascular endothelial cells; source: endogenous, mouse primary brain microvascular endothelial cells (C57BL/6 control; db/db diabetic), in lysate
fold change of association with ACE2, Spike-treated against untreated cells: 2 fold
